The target of assay [1] is MotS_(68–242)(D70A) (Bacillus subtilis). Kind of assay: SEC; Superdex 75 10/300 GL, 20 mM Tris-HCl pH 8.0 with 300 mM NaCl, 0.6 mL/min; size markers ovalbumin (43 kDa) and IgG (158 kDa).
The target in assay [2] is MotS_(68–242)(D70A/E75A) (Bacillus subtilis). Described as above.
Assay [3] concerns the target Bs-MotS_(68–242), periplasmic fragment of the stator B-subunit MotS from Bacillus subtilis (Bacillus subtilis). The description is as above.
The target is the same in assay [4]. The assay can be described thus: SEC; Superdex 75 10/300 GL, 20 mM Tris-HCl pH 8.0 with 300 mM KCl (no Na+), 0.6 mL/min; size markers ovalbumin (43 kDa) and IgG (158 kDa).
For assay [5] the target is unchanged. Kind of assay: crystal structure; protein purified in 300 mM NaCl; crystals from 20% PEG-8000, 0.1 M HEPES-NaOH pH 7.5, 293 K; soaked in 300 mM NaCl; 1.89 Å.
Assay [6] has the same target. Kind of assay: crystal structure; protein purified in 300 mM KCl; crystals from 40% PEG-300, 0.1 M Na2HPO4/citric acid pH 4.2, 293 K; soaked in 40 mM NaCl/300 mM KCl; 1.90 Å.
The target is the same in assay [7]. Kind of assay: crystal structure; protein purified in 150 mM NaCl; crystals from 1.26 M ammonium sulfate, 0.1 M HEPES-NaOH pH 7.5, 293 K; solution containing 92 mM NaCl; 1.89 Å.
The target of assay [8] is MotS_(68–242)(E75A) (Bacillus subtilis). Kind of assay: SEC; Superdex 75 10/300 GL, 20 mM Tris-HCl pH 8.0 with 300 mM NaCl, 0.6 mL/min; size markers ovalbumin (43 kDa) and IgG (158 kDa).

Consider four substances from article PMC11853200.

“MotS_(68–242)(D70A) (domain or fragment)”: the stoichiometry N (as a rule, a count of units in the complex or per binding partner) in assay [1] was determined as 2.
For the substance “MotS_(68–242)(D70A/E75A) (domain or fragment)”, in assay [2], the stoichiometry N amounted to 2.
For “Bs-MotS_(68–242), periplasmic fragment of the stator B-subunit MotS from Bacillus subtilis (domain or fragment)”, the stoichiometry N in assay [3], in assay [4], in assay [5], in assay [6] and in assay [7] was 2 in each case.
With “MotS_(68–242)(E75A) (domain or fragment)”, in assay [8], the stoichiometry N stood at 2.
